Measurements from publication PMC7275041, “m5C modification of mRNA serves a DNA damage code to promote homologous recombination”.

Biological target: T1, RAD52 (hRAD52) (human, UniProt P43351 1-418)
T1 sequence: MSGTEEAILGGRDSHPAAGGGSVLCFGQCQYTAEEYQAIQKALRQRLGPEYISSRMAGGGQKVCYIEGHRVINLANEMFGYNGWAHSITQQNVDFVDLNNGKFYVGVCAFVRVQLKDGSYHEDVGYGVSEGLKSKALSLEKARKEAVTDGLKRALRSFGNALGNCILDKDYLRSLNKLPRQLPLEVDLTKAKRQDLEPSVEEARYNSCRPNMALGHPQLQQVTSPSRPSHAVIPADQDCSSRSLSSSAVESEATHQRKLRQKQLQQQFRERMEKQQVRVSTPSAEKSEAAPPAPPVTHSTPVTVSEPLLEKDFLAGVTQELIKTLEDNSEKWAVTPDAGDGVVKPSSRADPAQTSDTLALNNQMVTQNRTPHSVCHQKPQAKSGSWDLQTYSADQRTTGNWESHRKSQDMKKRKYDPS
Assay: EMSA; higher efficiency than unmodified N1; 1 mM Mg2+; source data at top RAD52 level (360, unit not shown): 97.3 and 99.2; EMSA: 25 mM Tris-HCl pH 7.5, 1 mM MgCl2, 1 mM DTT, 50 ug/mL BSA, 50 or 300 mM NaCl and/or 0.5% NP-40, 15 min 37 C, 6% PAGE-TBE at 4 C; pull-down: Pierce magnetic RNA-protein pull-down kit
Conditions: protein: recombinant; tags: C-terminal 6xHis (pET28b); label: 5' maleimide-IR800 on oligo 1 (DNA); blunt

B1: 50-bp m5C DNA:RNA hybrid (oligo 1/oligo 3) (DNA:RNA)
DNA: ATCATCACCATAACGTCGATGTATCAACTTCGATTAGTCACACCAATTAA
RNA: UUAAUUGGUGUGACUAAUCGAAGUUGAUACAUCGACGUUAUGGUGAUGAU
modifications: m5C at every C of the RNA strand (positions 14, 19, 30, 33, 36; five m5C)
binding result: binds
